# Measured values from the DeepSol protein solubility set.
# Assay: soluble on expression in E. coli; label from the status in PepcDB or PDB records
row,Sequence,soluble on expression in E. coli
1,MIMAANEKEMRIKIIKDGPYRVTGGVPLLEQVIVTDDDGHTRDLIDIKEYPRREAYILCRCGSSENKPFCDGAHRKVGFDGSETASRTPYLEKAETFEGPDLKLTDVYELCDHSRFCQRSGGIRDLIQKSDDPEARQTAIEEAMICPSGRLVLWDKKTGKPFEKEFDPSIILVHDKQKGCEGPLWVRGGVPIESADGSMYEPRNRVTLCRCGKSENKPYCDGSHWMNSQQKLEFRKKWGLELEHHHHHH,not soluble
2,MIMKNGIVYFVGAGPGDPGLLTIKGKQALKEADVILYDRLANPKLLEFASPDCQFIYCGKLPNRHFMKQKEINALLVEKALNGLTVVRLKGGDPSVFGRVGEEADALHEHGIRYEMVPGITSGIAAPLYAGIPVTHRDFASSFAMITAHDKSLKGTPNLDWEGLARSVQTLVFYMGVKNLSYICQQLISYGKSPSVPVIVIQWGTWGRQRSVKGTLENIQQKVQEHQITNPAIIVIGDIVNFQTHSWFESKPLIGRHLMVVTHGEDEDPLADKLRDSGADLIEWPKWRTENMPVNEEILRKIGTFEDVFFTSRRAVCEFFRALASQKIDIRQLTAKLSAASEQAKTELEKRGFLVTAIQPDSEKRLVVGSRHAVENMQKHESCSFYITHENVIDDRFTHMIQRTISESPLHMVICPNKLSVQQLINGGEQIGILPEPSASRPPIVCIGDDSAAGIYGFTAVQEQDELLAFIHNQHAEKKLL,not soluble
3,MINKLDNLNEEVANQIFTVFQNSYKIEAQLIGTLNFPPLLRSAKDIENSKTLFYGFSENECLAAVIEIVLENKQLDINSLTVDPNYFRKGIANKLITYILDKFYFSEAIVETAVVNTPAINLYKKHGFVEFKRWIPSHGIEKLAMSVKATL,not soluble
4,MINLRWPLNWLKLQSSHGQRLNSQLNLIHSRKWIDFDEQIVGTWKLASSENCPNFIEWFGIEKKKSNYGYYNDLTQAKLNENLVFKMNYNNIVGIPKLFPHMSEKTVRENRHIKTTDDRSLKLTIDRYIDMGKLNVTMELKVNEGKHVCTCKLVYDRVYY,not soluble
5,MINVLIIDDDAMVAELNRRYVAQIPGFQCCGTASTLEKAKEIIFNSDTPIDLILLDIYMQKENGLDLLPVLHNARCKSDVIVISSAADAATIKDSLHYGVVDYLIKPFQASRFEEALTGWRQKKMALEKHQYYDQAELDQLIHGSSSNEQDPRRLPKGLTPQTLRTLCQWIDAHQDYEFSTDELANEVNISRVSCRKYLIWLVNCHILFTSIHYGVTGRPVYRYRIQAEHYSLLKQYCQ,soluble
6,MIPAEIAKTAFKSLLPVLERGVVAADRAFSGYIQPRRLRGKLLLQPYVGWGTPREVELTGRVLLPRALAPARKGDPRWRNFHNIVRRLFSREVGGVRVAGTLSDQTVSAVSDSDGYFTLHFTFPRPIAAGWHEVRLQMEDRQEDAARARVQVVGKARFGIISDLDDTVIQSDVTSLPRMLMTSLTGNARTRSPFPGVGALYRALTREGEARNPIFYVSSSPWNFFDLLWQFLDYRRIPLGPLFLRNWGMDLLGGHGGYKHGVIERIFHRYPNLNFVLVGDSGEKDPEIYAEVVRRFPGRVLAVYIRDVTGAERDEGVLRLREEIRKAGADLVLASDSLSAAGHALALGLITPGEYRSVLTSVARTYETLEHHHHHH,soluble
7,MIPIEIDSGSGFCFGVVNAIRHAEKQLEKSSDKLYCLGDIVHNTLEVERLGKKGLETIDYDAFSRLRGAKVLLRAHGEPPEIYRMAGENGVTIIDATCPVVLRLQNKIKSRYEATRSLGAQVVIYGKRGHAEVNGLVGQTEGTAIVIESEEELDKIDYTRPVILFSQTTKSLEGFGQIIDSISTRMQPGVTFEHHDTICRQVANRIPHIGAFATAHELVFFVAGEKSSNGKVLFGHCLAANPRSIFISSPEVIVPDMLVPLPASIGICGATSTPRWQMEEVASHIKALLLEHHHHHH,soluble
8,MIQKTISETSPPPMFSDEEILTEDEIEEYLDNLKSKLPSFVIILLKNNLRGKRVTKKQLDKIVERITEVLSKGRRDDKTEELNKKLQTLEQKLDAIMKLTTMAVSTKTSEEIEKIKTNEKIEIENAPIKIKSEEKPEKPVEIEVSKKKETMDTGKKTETEEKVKEIEVPKPVEKTHEKVEETKTKGEIKKEVKKEVKLKKYELPKESPMGGSFMTPIEEEKEYRLNDIPEDAVSMTLVFKWLEFLISRGGMTYLPDILDYYNKIGWISNRVILKLLRFAKNMKITFDEEELRPRDKLSPSDHIVSLLYIEKLAGRPIDSEILEMLEIEIRRIKKWAIELQSI,not soluble
9,MIRFAVIGTNWITRQFVEAAHESGKYKLTAVYSRSLEQAQHFANDFSVEHLFTSLEAMAESDAIDAVYIASPNSLHFSQTQLFLSHKINVICEKPLASNLAEVDAAIACARENQVVLFEAFKTACLPNFHLLRQALPKVGKLRKVFFNYCQYSSRYQRYLDGENPNTFNPAFSNGSIMDIGFYCLASAVALFGEPKSVQATASLLASGVDAQGVVVMDYGDFSVTLQHSKVSDSVLASEIQGEAGSLVIEKLSECQKVCFVPRGSQMQDLTQPQHINTMLYEAELFATLVDEHLVDHPGLAVSRITAKLLTEIRRQTGVIFPADSVKL,soluble
10,MIRLTRLDGDVFFVNPDLIEAIEETPDTHIVLSNGRRYLVIEKTDAIVARIISFKSSVMKRALGGHGRKYLRRKMEGSYLPRCPLKPGHNTDLEHHHHHH,soluble
11,MIRMPLATASLLAIAISLAGCGEGKDKAAAPAPAAAPAAPAAAPAAPAPAPAAAAQTDDAAAKAVVANYANMVSAVFDDAQGAAKKLSTAVDAFLAKPNDETLKAARDAWVAARVPYMQSEVFRFGNTIIDDWEGQVNAWPLDEGLIDYVAKDYQHALGNPGATANIIANTEIQVGEDKVDVKEITSEKLASLNELGGSEANVATGYHAIEFLLWGQDLNGTGPGAGARPASDYLEGAGATGGHNDRRRTYLKAVTDLLVSDLEEMAGNWKAGVADNYRATLEAESGESGLRKMLFGMGSLSLGELAGERMKVALEANSSEDEHDCFSDNTHNSHFYNGKGIRNVYLGEYTRTDGSKVSGPSLSSLVAKVDPATDATLRADLDDTQAKLQAIVDHANKGEHFDQLIGAGNTAGNQVVRDAIAALVKQTGAIEQAAGKLGITDLNPDNADHEF,soluble
12,MIRQRRRALTPEQQQEMGQQAATRMMTYPPVVMAHTVAVFLSFDGELDTQPLIEQLWRAGKRVYLPVLHPFSAGNLLFLNYHPQSELVMNRLKIHEPKLDVRDVLPLSRLDVLITPLVAFDEYGQRLGMGGGFYDRTLQNWQHYKTQPVGYAHDCQLVEKLPVEEWDIPLPAVVTPSKVWEW,soluble
13,MIRYKIYQNQQKKGLNAGKWFARAVSDETFDLSKLAEHMSKHNSPYSSGVIKGVLTDMVDCIKELLLDGKSVKIDDLAIFGVGIRSKAAETLEEFSLEKNITGMRLKARATGNLSTTNLKLDSQLKQQAEYQKPTTPGGGGSGSGNTPDPKPNPDEGDEEAPDPTV,not soluble
14,MISDIRKDAEVRMEKCVEAFKTQISKVRTGRASPSLLDGIVVEYYGTPTPLRQLASVTVEDSRTLKINVFDRSMGPAVEKAIMASDLGLNPSSAGTDIRVPLPPLTEERRKDLTKIVRGEAEQARVAVRNVRRDANDKVKALLKDKAISEDDDRRSQEEVQKMTDAAIKKVDAALADKEAELMQF,not soluble
15,MISSMTGFGRSKVESDTFQITVEMKSVNHRFLEMSIRLPKQMMVFEDKIRKIIAQQVRRGRIEVSISIAGEGLVERKLSVNWSLLEQYQSMMEDIKGKFQLQDSITLEQLMAMPEVTAIEEIENVNEHFENSLYEAVRQAAHMLKTMRDGEGERLHKDIAYRLQEISNCVNAIIPHAPIVTQKYRERLENRLKELHNQDLDEQRLLTEVAIFAERCDIHEELVRLQSHLEQFRETLQIEEPVGRKMDFIVQEMHREINTIGSKANDLTISKYVVEMKNNLEKIREQVQNIE,not soluble
16,MISVMQQMINNDSPEDSKESITSVQQTPFFWPSAAAAIPSIQGESRSERESETGSSPQLAPSSTGMVMPGTAGMYGFGPSRMPTANEFGMMMNPVYTDFYQNPLASTDITIPTTAGSSAATTPNAAMHLPWAISHDGKKKRQPYKKDQISRLEYEYSVNQYLTNKRRSELSAQLMLDEKQVKVWFQNRRMKDKKLRQRHSGPFPHGAPVTPCIERLIN,not soluble
